Reference: publication PMC7804152, “Structural basis for the multi-activity factor Rad5 in replication stress tolerance”

Columns and labels:
[1] = biological target: T1, HLTF (Homo sapiens, UniProt Q14527 25-1009); assay: pull-down; 100 mM salt; FP: 20 mM Tris pH 7.5, 50 mM (dsDNA, KlHIRAN) or 70 mM (ssDNA) NaCl, 2 mM MgCl2, 1 nM DNA, room temp; EMSA: 20 mM Tris pH 7.5, 100 mM KCl, 0.5 mM DTT, 3% glycerol, 2 mM MgCl2, 250 ug/mL BSA, 4 C; pull-down: 20 mM Tris pH 7.5, 50 mM NaCl, 4 C; conditions: protein: recombinant; tags: His (pET28a); label: 5'-biotin
T1 sequence: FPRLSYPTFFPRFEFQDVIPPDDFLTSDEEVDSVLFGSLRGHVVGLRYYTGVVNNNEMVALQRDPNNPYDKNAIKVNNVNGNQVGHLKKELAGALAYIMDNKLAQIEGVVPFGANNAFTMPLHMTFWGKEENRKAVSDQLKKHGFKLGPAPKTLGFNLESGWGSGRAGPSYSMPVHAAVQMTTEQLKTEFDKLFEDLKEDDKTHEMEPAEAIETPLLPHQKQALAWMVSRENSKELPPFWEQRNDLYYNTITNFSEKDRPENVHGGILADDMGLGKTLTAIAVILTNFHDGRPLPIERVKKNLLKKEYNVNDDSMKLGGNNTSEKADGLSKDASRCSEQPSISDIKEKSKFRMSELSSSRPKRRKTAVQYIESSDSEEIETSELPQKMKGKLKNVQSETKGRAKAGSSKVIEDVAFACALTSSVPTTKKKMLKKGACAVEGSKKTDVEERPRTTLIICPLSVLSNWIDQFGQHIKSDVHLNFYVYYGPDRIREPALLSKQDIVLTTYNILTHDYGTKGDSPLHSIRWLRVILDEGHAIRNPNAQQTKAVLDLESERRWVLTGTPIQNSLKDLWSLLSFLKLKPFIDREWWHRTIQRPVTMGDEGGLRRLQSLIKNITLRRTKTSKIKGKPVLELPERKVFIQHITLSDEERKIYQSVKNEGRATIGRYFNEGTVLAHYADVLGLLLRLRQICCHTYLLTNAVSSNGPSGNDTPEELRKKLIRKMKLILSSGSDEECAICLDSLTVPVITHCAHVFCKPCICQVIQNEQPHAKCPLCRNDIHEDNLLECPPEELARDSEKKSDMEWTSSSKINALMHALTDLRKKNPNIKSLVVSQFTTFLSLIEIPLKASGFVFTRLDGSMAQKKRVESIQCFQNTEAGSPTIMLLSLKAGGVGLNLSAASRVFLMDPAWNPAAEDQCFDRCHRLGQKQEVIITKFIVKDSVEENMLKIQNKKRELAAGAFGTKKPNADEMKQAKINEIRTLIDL

[2] = biological target: T2, KlRad5 (Kluyveromyces lactis, UniProt Q6CJM4 163-1114); assay: pull-down; suppressed by SSB; all salt concentrations tested; FP: 20 mM Tris pH 7.5, 50 mM (dsDNA, KlHIRAN) or 70 mM (ssDNA) NaCl, 2 mM MgCl2, 1 nM DNA, room temp; EMSA: 20 mM Tris pH 7.5, 100 mM KCl, 0.5 mM DTT, 3% glycerol, 2 mM MgCl2, 250 ug/mL BSA, 4 C; pull-down: 20 mM Tris pH 7.5, 50 mM NaCl, 4 C; conditions: protein: recombinant; tags: none; label: 5'-biotin
T2 sequence: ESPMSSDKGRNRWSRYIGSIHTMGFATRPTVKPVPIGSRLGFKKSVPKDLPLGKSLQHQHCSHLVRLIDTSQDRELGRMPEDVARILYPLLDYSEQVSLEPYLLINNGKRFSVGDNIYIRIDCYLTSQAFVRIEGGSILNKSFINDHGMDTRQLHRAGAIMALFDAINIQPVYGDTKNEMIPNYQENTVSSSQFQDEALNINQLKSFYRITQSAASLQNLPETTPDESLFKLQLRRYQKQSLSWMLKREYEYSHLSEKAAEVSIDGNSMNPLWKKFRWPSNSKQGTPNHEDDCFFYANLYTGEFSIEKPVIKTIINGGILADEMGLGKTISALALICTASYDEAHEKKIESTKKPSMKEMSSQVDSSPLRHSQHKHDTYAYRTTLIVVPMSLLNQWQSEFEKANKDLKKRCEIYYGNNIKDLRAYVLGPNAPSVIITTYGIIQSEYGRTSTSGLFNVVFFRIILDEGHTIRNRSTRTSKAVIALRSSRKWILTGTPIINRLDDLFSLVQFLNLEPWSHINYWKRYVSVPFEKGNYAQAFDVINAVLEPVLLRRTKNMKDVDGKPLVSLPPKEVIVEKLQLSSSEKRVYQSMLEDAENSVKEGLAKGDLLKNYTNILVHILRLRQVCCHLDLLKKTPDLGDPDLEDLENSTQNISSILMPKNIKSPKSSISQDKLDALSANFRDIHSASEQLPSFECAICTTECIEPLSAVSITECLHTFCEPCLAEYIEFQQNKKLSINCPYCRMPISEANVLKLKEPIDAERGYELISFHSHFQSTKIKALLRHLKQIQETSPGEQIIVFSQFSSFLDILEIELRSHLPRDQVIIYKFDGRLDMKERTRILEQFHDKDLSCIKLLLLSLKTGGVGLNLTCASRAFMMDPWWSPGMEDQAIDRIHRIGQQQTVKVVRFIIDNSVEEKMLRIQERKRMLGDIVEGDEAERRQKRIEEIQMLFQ

[3] = biological target: T3, ScRad5 (Saccharomyces cerevisiae, UniProt P32849 1-1169); assay: pull-down; FP: 20 mM Tris pH 7.5, 50 mM (dsDNA, KlHIRAN) or 70 mM (ssDNA) NaCl, 2 mM MgCl2, 1 nM DNA, room temp; EMSA: 20 mM Tris pH 7.5, 100 mM KCl, 0.5 mM DTT, 3% glycerol, 2 mM MgCl2, 250 ug/mL BSA, 4 C; pull-down: 20 mM Tris pH 7.5, 50 mM NaCl, 4 C; conditions: protein: recombinant; tags: N-terminal FLAG; label: 5'-biotin
T3 sequence: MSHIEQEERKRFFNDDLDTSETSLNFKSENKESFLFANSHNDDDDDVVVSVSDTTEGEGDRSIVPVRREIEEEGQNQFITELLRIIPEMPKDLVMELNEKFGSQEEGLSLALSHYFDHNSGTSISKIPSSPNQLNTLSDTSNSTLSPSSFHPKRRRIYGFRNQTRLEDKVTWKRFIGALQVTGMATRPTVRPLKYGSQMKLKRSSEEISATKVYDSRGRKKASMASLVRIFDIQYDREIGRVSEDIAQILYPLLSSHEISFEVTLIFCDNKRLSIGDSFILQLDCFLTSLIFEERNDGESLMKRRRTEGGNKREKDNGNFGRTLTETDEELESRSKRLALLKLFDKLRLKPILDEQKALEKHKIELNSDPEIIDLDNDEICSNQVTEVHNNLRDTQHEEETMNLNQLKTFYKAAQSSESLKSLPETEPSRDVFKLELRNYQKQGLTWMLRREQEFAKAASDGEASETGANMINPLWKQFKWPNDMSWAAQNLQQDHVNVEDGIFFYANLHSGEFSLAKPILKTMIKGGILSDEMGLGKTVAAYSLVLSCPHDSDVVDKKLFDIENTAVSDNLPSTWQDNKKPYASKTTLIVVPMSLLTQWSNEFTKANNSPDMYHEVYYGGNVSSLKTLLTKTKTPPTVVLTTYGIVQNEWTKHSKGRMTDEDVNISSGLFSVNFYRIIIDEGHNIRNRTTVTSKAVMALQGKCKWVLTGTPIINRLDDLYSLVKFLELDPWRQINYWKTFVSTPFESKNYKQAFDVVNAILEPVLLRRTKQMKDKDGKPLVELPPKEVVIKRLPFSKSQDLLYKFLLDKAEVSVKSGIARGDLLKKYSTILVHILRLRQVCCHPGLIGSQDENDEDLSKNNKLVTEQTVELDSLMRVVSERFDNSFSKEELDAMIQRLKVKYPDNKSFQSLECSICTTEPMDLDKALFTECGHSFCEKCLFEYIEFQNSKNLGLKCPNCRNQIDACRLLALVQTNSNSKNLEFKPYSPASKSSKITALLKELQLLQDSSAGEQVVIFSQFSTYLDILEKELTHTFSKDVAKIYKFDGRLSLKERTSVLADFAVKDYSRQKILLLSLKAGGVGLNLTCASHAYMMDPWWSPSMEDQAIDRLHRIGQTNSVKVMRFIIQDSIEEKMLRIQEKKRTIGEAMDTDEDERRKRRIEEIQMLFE

[4] = biological target: T1, HLTF; assay: pull-down; lower salt; FP: 20 mM Tris pH 7.5, 50 mM (dsDNA, KlHIRAN) or 70 mM (ssDNA) NaCl, 2 mM MgCl2, 1 nM DNA, room temp; EMSA: 20 mM Tris pH 7.5, 100 mM KCl, 0.5 mM DTT, 3% glycerol, 2 mM MgCl2, 250 ug/mL BSA, 4 C; pull-down: 20 mM Tris pH 7.5, 50 mM NaCl, 4 C; conditions: protein: recombinant; tags: His (pET28a); label: 3'-biotin
[5] = biological target: T2, KlRad5; assay: pull-down; similar to 5'-biotin at all salt concentrations; FP: 20 mM Tris pH 7.5, 50 mM (dsDNA, KlHIRAN) or 70 mM (ssDNA) NaCl, 2 mM MgCl2, 1 nM DNA, room temp; EMSA: 20 mM Tris pH 7.5, 100 mM KCl, 0.5 mM DTT, 3% glycerol, 2 mM MgCl2, 250 ug/mL BSA, 4 C; pull-down: 20 mM Tris pH 7.5, 50 mM NaCl, 4 C; conditions: protein: recombinant; tags: none; label: 3'-biotin
[6] = biological target: T3, ScRad5; assay: pull-down; similar to 5'-biotin; FP: 20 mM Tris pH 7.5, 50 mM (dsDNA, KlHIRAN) or 70 mM (ssDNA) NaCl, 2 mM MgCl2, 1 nM DNA, room temp; EMSA: 20 mM Tris pH 7.5, 100 mM KCl, 0.5 mM DTT, 3% glycerol, 2 mM MgCl2, 250 ug/mL BSA, 4 C; pull-down: 20 mM Tris pH 7.5, 50 mM NaCl, 4 C; conditions: protein: recombinant; tags: N-terminal FLAG; label: 3'-biotin
[7] = biological target: T4, ScHIRAN (Saccharomyces cerevisiae, UniProt P32849 171-375); assay: EMSA; no preference for free 3'-OH; FP: 20 mM Tris pH 7.5, 50 mM (dsDNA, KlHIRAN) or 70 mM (ssDNA) NaCl, 2 mM MgCl2, 1 nM DNA, room temp; EMSA: 20 mM Tris pH 7.5, 100 mM KCl, 0.5 mM DTT, 3% glycerol, 2 mM MgCl2, 250 ug/mL BSA, 4 C; pull-down: 20 mM Tris pH 7.5, 50 mM NaCl, 4 C; conditions: protein: recombinant; tags: intein-CBD cleaved off; label: 3'-FAM
T4 sequence: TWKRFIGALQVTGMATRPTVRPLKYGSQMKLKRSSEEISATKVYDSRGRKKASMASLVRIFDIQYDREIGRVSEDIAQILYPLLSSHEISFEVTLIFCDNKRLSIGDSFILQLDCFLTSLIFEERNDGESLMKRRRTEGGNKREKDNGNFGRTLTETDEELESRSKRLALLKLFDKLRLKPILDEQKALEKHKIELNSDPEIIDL

[8] = biological target: T5, KlHIRAN (Kluyveromyces lactis, UniProt Q6CJM4 174-341); assay: as above; conditions: protein: recombinant; tags: intein-CBD cleaved off; label: 3'-FAM
T5 sequence: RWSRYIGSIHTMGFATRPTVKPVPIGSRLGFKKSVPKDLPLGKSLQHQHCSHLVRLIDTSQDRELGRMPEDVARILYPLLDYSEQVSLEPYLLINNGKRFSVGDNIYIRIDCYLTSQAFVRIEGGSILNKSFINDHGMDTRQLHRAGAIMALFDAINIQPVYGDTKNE

B1: dT25, 5'-biotin (ssDNA)
DNA: TTTTTTTTTTTTTTTTTTTTTTTTT
- binding result [1]: binds
- binding result [2]: binds
- binding result [3]: binds

B2: dT25, 3'-biotin (ssDNA)
DNA: TTTTTTTTTTTTTTTTTTTTTTTTT
- binding result [4]: binds
- binding result [5]: binds
- binding result [6]: binds

B3: dT10, 3'-FAM (ssDNA)
DNA: TTTTTTTTTT
- binding result [7]: binds
- binding result [8]: binds
